Seven molecules from publication PMC5180179, “Bacteriophage T5 gene D10 encodes a branch-migration protein” can be followed below.

The target in data set [1] is T1, D10 helicase (wild type) (Bacteriophage T5, UniProt P11107 1-450).
T1 sequence: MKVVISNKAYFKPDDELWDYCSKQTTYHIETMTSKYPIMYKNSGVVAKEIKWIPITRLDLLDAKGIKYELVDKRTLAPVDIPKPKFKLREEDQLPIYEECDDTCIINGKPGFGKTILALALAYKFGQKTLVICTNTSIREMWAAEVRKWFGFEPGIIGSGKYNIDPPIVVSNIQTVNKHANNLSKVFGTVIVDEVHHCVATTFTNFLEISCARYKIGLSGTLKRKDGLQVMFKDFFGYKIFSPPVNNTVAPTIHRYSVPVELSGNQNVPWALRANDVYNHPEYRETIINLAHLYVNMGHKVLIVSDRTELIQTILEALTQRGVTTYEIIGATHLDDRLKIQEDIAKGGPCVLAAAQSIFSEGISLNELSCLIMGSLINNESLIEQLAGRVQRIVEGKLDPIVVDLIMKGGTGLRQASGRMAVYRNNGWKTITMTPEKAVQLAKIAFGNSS
As to the kind of experiment: EMSA with nonspecific competitor DNA; no ATP/Mg2+, 1 mM EDTA; EMSA: 0.1 nM DNA, 20 mM HEPES-NaOH pH 7.5, 135 mM NaCl, 0.1% NP40 alternative, 0.1 mg/ml BSA, 2 mM DTT, 1 mM EDTA, 10% glycerol, 22 °C, 20 min; footprinting the same with 10 nM DNA and no glycerol. To be noted: protein: recombinant; tags: GST tag removed with thrombin; label: 5'-32P; three-way Y-junction, three 20 bp arms, nick in strand A at the junction. On the technique in general: Mobility shift assays separate free from complexed probe on a gel.

Data set [2] has as its target T1, D10 helicase (wild type). The data set can be described thus: EMSA with nonspecific competitor DNA; affinity similar to Y20; EMSA: 0.1 nM DNA, 20 mM HEPES-NaOH pH 7.5, 135 mM NaCl, 0.1% NP40 alternative, 0.1 mg/ml BSA, 2 mM DTT, 1 mM EDTA, 10% glycerol, 22 °C, 20 min; footprinting the same with 10 nM DNA and no glycerol. To be noted: protein: recombinant, tags: GST tag removed with thrombin, label: 5'-32P, three-way Y-junction, three 20 bp arms.

The target in data set [3] is T1, D10 helicase (wild type). The data set can be described thus: EMSA with poly d(AT) competitor; no ATP/Mg2+; affinity near identical to Y20; EMSA: 0.1 nM DNA, 20 mM HEPES-NaOH pH 7.5, 135 mM NaCl, 0.1% NP40 alternative, 0.1 mg/ml BSA, 2 mM DTT, 1 mM EDTA, 10% glycerol, 22 °C, 20 min; footprinting the same with 10 nM DNA and no glycerol. The settings on record: protein: recombinant; tags: GST tag removed with thrombin; label: 5'-32P; three-way Y-junction, three 20 bp arms.

Data set [4] has as its target T1, D10 helicase (wild type). As to the kind of experiment: EMSA; EMSA: 0.1 nM DNA, 20 mM HEPES-NaOH pH 7.5, 135 mM NaCl, 0.1% NP40 alternative, 0.1 mg/ml BSA, 2 mM DTT, 1 mM EDTA, 10% glycerol, 22 °C, 20 min; footprinting the same with 10 nM DNA and no glycerol. The settings on record: protein: recombinant; tags: GST tag removed with thrombin; label: 5'-32P; four-way non-homologous Holliday junction, four 20 bp arms.

The target in the next data set is T2, D10 R389N (Bacteriophage T5, UniProt P11107 1-450, R389N).
T2 sequence: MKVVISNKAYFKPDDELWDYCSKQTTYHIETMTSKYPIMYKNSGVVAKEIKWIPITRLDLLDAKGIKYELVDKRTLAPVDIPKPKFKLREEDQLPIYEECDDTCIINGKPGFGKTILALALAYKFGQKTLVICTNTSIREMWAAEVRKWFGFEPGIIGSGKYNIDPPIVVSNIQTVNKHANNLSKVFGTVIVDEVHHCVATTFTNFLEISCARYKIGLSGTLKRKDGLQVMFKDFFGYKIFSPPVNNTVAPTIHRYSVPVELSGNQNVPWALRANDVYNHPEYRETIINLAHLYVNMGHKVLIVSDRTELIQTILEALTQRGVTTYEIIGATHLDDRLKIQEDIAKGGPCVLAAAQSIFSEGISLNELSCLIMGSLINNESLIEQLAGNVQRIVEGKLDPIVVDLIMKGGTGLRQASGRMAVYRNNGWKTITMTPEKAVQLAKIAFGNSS
As to the kind of experiment: EMSA; binding equivalent to wild type; not unwound; EMSA: 0.1 nM DNA, 20 mM HEPES-NaOH pH 7.5, 135 mM NaCl, 0.1% NP40 alternative, 0.1 mg/ml BSA, 2 mM DTT, 1 mM EDTA, 10% glycerol, 22 °C, 20 min; footprinting the same with 10 nM DNA and no glycerol. To be noted: protein: recombinant; tags: GST tag removed with thrombin; label: 5'-32P; four-way non-homologous Holliday junction, four 20 bp arms.

Data set [5] addresses T1, D10 helicase (wild type). As to the kind of experiment: EMSA with poly d(AT) competitor; no ATP/Mg2+; 0.1 nM DNA, 0.4 nM D10 (all substrate bound); EMSA: 0.1 nM DNA, 20 mM HEPES-NaOH pH 7.5, 135 mM NaCl, 0.1% NP40 alternative, 0.1 mg/ml BSA, 2 mM DTT, 1 mM EDTA, 10% glycerol, 22 °C, 20 min; footprinting the same with 10 nM DNA and no glycerol. The settings on record: protein: recombinant; tags: GST tag removed with thrombin; label: 5'-32P on one strand; three-way Y-junction, three 20 bp arms.

Data set [6] deals with T1, D10 helicase (wild type). As to the kind of experiment: EMSA with poly d(AT) competitor; no ATP/Mg2+; affinity near identical to Y20; bound but not unwound; EMSA: 0.1 nM DNA, 20 mM HEPES-NaOH pH 7.5, 135 mM NaCl, 0.1% NP40 alternative, 0.1 mg/ml BSA, 2 mM DTT, 1 mM EDTA, 10% glycerol, 22 °C, 20 min; footprinting the same with 10 nM DNA and no glycerol. To be noted: protein: recombinant; tags: GST tag removed with thrombin; label: 5'-32P; three-way Y-junction, three 20 bp arms.

B1: Y20-3 (oligo A nicked) (dsDNA)
DNA 1: TTCGAAACGTGCGCGCCCAT
DNA 2: ACGCCAAGCTTAACGGTGAT
DNA 3: ATCACCGTTAAGCTTGGCGTCGAATTCGAGCTCGGTACCC
DNA 4: GGGTACCGAGCTCGAATTCGATGGGCGCGCACGTTTCGAA
With B1, the binding signal with D10 helicase (wild type) [1] was ~2 fold lower affinity than Y20.

B2: Y20-2 (oligo B nicked) (dsDNA)
DNA 1: TTCGAAACGTGCGCGCCCATACGCCAAGCTTAACGGTGAT
DNA 2: GGGTACCGAGCTCGAATTCGATGGGCGCGCACGTTTCGAA
DNA 3: ATCACCGTTAAGCTTGGCGT
DNA 4: CGAATTCGAGCTCGGTACCC
On to B2, for which the binding result with D10 helicase (wild type) [2] (nick in strand B at the junction) was “binds”.

B3: Y20' (dsDNA)
DNA 1: TTCGAAACGTGCGCGCCTCGATGCCAAGCTTAACGGTGAT
DNA 2: ATCACCGTTAAGCTTGGCATACGATTCGAGCTCGGTACCC
DNA 3: GGGTACCGAGCTCGAATCGTCGAGGCGCGCACGTTTCGAA
With B3, the binding result with D10 helicase (wild type) [3] was “binds”.

B4: NHJ20 (dsDNA)
DNA 1: TTCGAAACGTGCGCGCCCATACGCCAAGCTTAACGGTGAT
DNA 2: ATCACCGTTAAGCTTGGCGTCGAATTCGAGCTCGGTACCC
DNA 3: GGGTACCGAGCTCGAATTCGTGGGCGGTGCCCAACGCATA
DNA 4: TATGCGTTGGGCACCGCCCAATGGGCGCGCACGTTTCGAA
With B4, the binding result with D10 helicase (wild type) [4] and with D10 R389N was “binds” in each case.

B5: Y20-1 (oligo C nicked) (dsDNA)
DNA 1: TTCGAAACGTGCGCGCCCATACGCCAAGCTTAACGGTGAT
DNA 2: ATCACCGTTAAGCTTGGCGTCGAATTCGAGCTCGGTACCC
DNA 3: GGGTACCGAGCTCGAATTCG
DNA 4: ATGGGCGCGCACGTTTCGAA
As for B5, in the data set with D10 helicase (wild type) [2] (nick in strand C at the junction), the binding result is “binds”.

B6: Y20 (dsDNA)
DNA 1: TTCGAAACGTGCGCGCCCATACGCCAAGCTTAACGGTGAT
DNA 2: ATCACCGTTAAGCTTGGCGTCGAATTCGAGCTCGGTACCC
DNA 3: GGGTACCGAGCTCGAATTCGATGGGCGCGCACGTTTCGAA
As for B6, the binding result with D10 helicase (wild type) [5] is “binds”.

B7: Y20'' (dsDNA)
DNA 1: TTCGAAACGTGCGGAATCATACGGGCGGCTTAACGGTGAT
DNA 2: ATCACCGTTAAGCCGCCCGTCGACCAAGAGCTCGGTACCC
DNA 3: GGGTACCGAGCTCTTGGTCGATGATTCCGCACGTTTCGAA
B7: in the data set with D10 helicase (wild type) [6], the binding result is on record as “binds”.
